Results as given in paper PMC9495943, “Recombinant Expression of Archaeal Superoxide Dismutases in Plant Cell Cultures: A Sustainable Solution with Potential Application in the Food Industry” (Antioxidants, 2022).

Molecular target: the molecule itself
Assay: SEC; Superdex 200 calibrated with standard protein markers; 50 mM Tris-HCl pH 7.5, 50 mM NaCl; partially purified SOD (ultrafiltration retentate of transformed tomato cell extract) loaded; apparent native mass compared with the theoretical mass of a homodimer

B1: Superoxide dismutase (Mn/Fe-dependent SOD) from Saccharolobus solfataricus P2 (enzyme, UniProt P80857 1-211, looked up)
chain: MTLQIQFKKYELPPLPYKIDALEPYISKDIIDVHYNGHHKGYVNGANSLLERLEKVVKGDLQTGQYDIQGIIRGLTFNINGHKLHALYWENMAPSGKGGGKPGGALADLINKQYGSFDRFKQVFTETANSLPGTGWAVLYYDTESGNLQIMTFENHFQNHIAEIPIILILDEFEHAYYLQYKNKRADYVNAWWNVVNWDAAEKKLQKYLTK
notes: Mn/Fe-dependent superoxide dismutase of Saccharolobus solfataricus P2; whole CDS (636 bp) amplified from genomic DNA and expressed in tomato cells; subunit of approximately 24 kDa; ORF cloned into the NcoI-XbaI sites of pCK-EGFP, then into pBI121; No tag is mentioned; also called SODSs; sodSs product
For B1, the “stoichiometry N” value was 2.
